# According to the MegaScale stability set (Tsuboyama et al. 2023):
# B1: EEHEE_rd3_1049 (parent)
# chain: TTVKLGDIKVTFDNPEKAKKYAQKLAKIYQLTVHVHGDTIHVK
# Variants of: B1
# Test: folding stability dG (cDNA display proteolysis); higher = more stable
# Conditions: PBS, room temperature
row,Variant,folding stability dG
1,TFVKLGDIKVTFDNPEKAKKYAQKLAKIYQLTVHVHGDTIHVK [T2F],1.67 kcal/mol
2,TKVKLGDIKVTFDNPEKAKKYAQKLAKIYQLTVHVHGDTIHVK [T2K],1.26 kcal/mol
3,TGVKLGDIKVTFDNPEKAKKYAQKLAKIYQLTVHVHGDTIHVK [T2G],0.901 kcal/mol
4,TDVKLGDIKVTFDNPEKAKKYAQKLAKIYQLTVHVHGDTIHVK [T2D],1.01 kcal/mol
5,TSVKLGDIKVTFDNPEKAKKYAQKLAKIYQLTVHVHGDTIHVK [T2S],1.4 kcal/mol
6,THVKLGDIKVTFDNPEKAKKYAQKLAKIYQLTVHVHGDTIHVK [T2H],1.82 kcal/mol
7,TWVKLGDIKVTFDNPEKAKKYAQKLAKIYQLTVHVHGDTIHVK [T2W],1.6 kcal/mol
8,TNVKLGDIKVTFDNPEKAKKYAQKLAKIYQLTVHVHGDTIHVK [T2N],1.17 kcal/mol
9,TMVKLGDIKVTFDNPEKAKKYAQKLAKIYQLTVHVHGDTIHVK [T2M],1.65 kcal/mol
10,TLVKLGDIKVTFDNPEKAKKYAQKLAKIYQLTVHVHGDTIHVK [T2L],1.51 kcal/mol
11,TEVKLGDIKVTFDNPEKAKKYAQKLAKIYQLTVHVHGDTIHVK [T2E],1.06 kcal/mol
12,TPVKLGDIKVTFDNPEKAKKYAQKLAKIYQLTVHVHGDTIHVK [T2P],0.739 kcal/mol
13,TVVKLGDIKVTFDNPEKAKKYAQKLAKIYQLTVHVHGDTIHVK [T2V],2.12 kcal/mol
14,TYVKLGDIKVTFDNPEKAKKYAQKLAKIYQLTVHVHGDTIHVK [T2Y],1.72 kcal/mol
15,TIVKLGDIKVTFDNPEKAKKYAQKLAKIYQLTVHVHGDTIHVK [T2I],2.23 kcal/mol
16,TQVKLGDIKVTFDNPEKAKKYAQKLAKIYQLTVHVHGDTIHVK [T2Q],1.28 kcal/mol
17,TRVKLGDIKVTFDNPEKAKKYAQKLAKIYQLTVHVHGDTIHVK [T2R],1.03 kcal/mol
18,TCVKLGDIKVTFDNPEKAKKYAQKLAKIYQLTVHVHGDTIHVK [T2C],2.33 kcal/mol
19,TAVKLGDIKVTFDNPEKAKKYAQKLAKIYQLTVHVHGDTIHVK [T2A],1.22 kcal/mol

row,Variant,folding stability dG
1,TTVKNGDIKVTFDNPEKAKKYAQKLAKIYQLTVHVHGDTIHVK [L5N],0.735 kcal/mol
2,TTVKVGDIKVTFDNPEKAKKYAQKLAKIYQLTVHVHGDTIHVK [L5V],2.08 kcal/mol
3,TTVKMGDIKVTFDNPEKAKKYAQKLAKIYQLTVHVHGDTIHVK [L5M],2.24 kcal/mol
4,TTVKAGDIKVTFDNPEKAKKYAQKLAKIYQLTVHVHGDTIHVK [L5A],0.939 kcal/mol
5,TTVKHGDIKVTFDNPEKAKKYAQKLAKIYQLTVHVHGDTIHVK [L5H],1.59 kcal/mol
6,TTVKCGDIKVTFDNPEKAKKYAQKLAKIYQLTVHVHGDTIHVK [L5C],3.38 kcal/mol
7,TTVKKGDIKVTFDNPEKAKKYAQKLAKIYQLTVHVHGDTIHVK [L5K],0.76 kcal/mol
8,TTVKPGDIKVTFDNPEKAKKYAQKLAKIYQLTVHVHGDTIHVK [L5P],0.495 kcal/mol
9,TTVKWGDIKVTFDNPEKAKKYAQKLAKIYQLTVHVHGDTIHVK [L5W],2.83 kcal/mol
10,TTVKFGDIKVTFDNPEKAKKYAQKLAKIYQLTVHVHGDTIHVK [L5F],2.71 kcal/mol
11,TTVKQGDIKVTFDNPEKAKKYAQKLAKIYQLTVHVHGDTIHVK [L5Q],0.604 kcal/mol
12,TTVKRGDIKVTFDNPEKAKKYAQKLAKIYQLTVHVHGDTIHVK [L5R],0.884 kcal/mol
13,TTVKTGDIKVTFDNPEKAKKYAQKLAKIYQLTVHVHGDTIHVK [L5T],0.739 kcal/mol
14,TTVKYGDIKVTFDNPEKAKKYAQKLAKIYQLTVHVHGDTIHVK [L5Y],2.12 kcal/mol
15,TTVKIGDIKVTFDNPEKAKKYAQKLAKIYQLTVHVHGDTIHVK [L5I],2.79 kcal/mol
16,TTVKSGDIKVTFDNPEKAKKYAQKLAKIYQLTVHVHGDTIHVK [L5S],0.683 kcal/mol
17,TTVKEGDIKVTFDNPEKAKKYAQKLAKIYQLTVHVHGDTIHVK [L5E],0.422 kcal/mol
18,TTVKDGDIKVTFDNPEKAKKYAQKLAKIYQLTVHVHGDTIHVK [L5D],0.531 kcal/mol
19,TTVKGGDIKVTFDNPEKAKKYAQKLAKIYQLTVHVHGDTIHVK [L5G],0.536 kcal/mol

row,Variant,folding stability dG
1,TTQKLGDIKVTFDNPEKAKKYAQKLAKIYQLTVHVHGDTIHVK [V3Q],0.609 kcal/mol
2,TTEKLGDIKVTFDNPEKAKKYAQKLAKIYQLTVHVHGDTIHVK [V3E],0.57 kcal/mol
3,TTKKLGDIKVTFDNPEKAKKYAQKLAKIYQLTVHVHGDTIHVK [V3K],0.686 kcal/mol
4,TTPKLGDIKVTFDNPEKAKKYAQKLAKIYQLTVHVHGDTIHVK [V3P],0.746 kcal/mol
5,TTAKLGDIKVTFDNPEKAKKYAQKLAKIYQLTVHVHGDTIHVK [V3A],0.626 kcal/mol
6,TTTKLGDIKVTFDNPEKAKKYAQKLAKIYQLTVHVHGDTIHVK [V3T],0.665 kcal/mol
7,TTNKLGDIKVTFDNPEKAKKYAQKLAKIYQLTVHVHGDTIHVK [V3N],0.593 kcal/mol
8,TTLKLGDIKVTFDNPEKAKKYAQKLAKIYQLTVHVHGDTIHVK [V3L],1.09 kcal/mol
9,TTRKLGDIKVTFDNPEKAKKYAQKLAKIYQLTVHVHGDTIHVK [V3R],0.673 kcal/mol
10,TTMKLGDIKVTFDNPEKAKKYAQKLAKIYQLTVHVHGDTIHVK [V3M],0.732 kcal/mol
11,TTGKLGDIKVTFDNPEKAKKYAQKLAKIYQLTVHVHGDTIHVK [V3G],0.742 kcal/mol
12,TTHKLGDIKVTFDNPEKAKKYAQKLAKIYQLTVHVHGDTIHVK [V3H],0.671 kcal/mol
13,V3D,0.577 kcal/mol
14,TTSKLGDIKVTFDNPEKAKKYAQKLAKIYQLTVHVHGDTIHVK [V3S],0.71 kcal/mol
15,TTCKLGDIKVTFDNPEKAKKYAQKLAKIYQLTVHVHGDTIHVK [V3C],2.3 kcal/mol
16,TTFKLGDIKVTFDNPEKAKKYAQKLAKIYQLTVHVHGDTIHVK [V3F],0.742 kcal/mol
17,TTIKLGDIKVTFDNPEKAKKYAQKLAKIYQLTVHVHGDTIHVK [V3I],1.34 kcal/mol
18,TTYKLGDIKVTFDNPEKAKKYAQKLAKIYQLTVHVHGDTIHVK [V3Y],0.622 kcal/mol
